From PMC11945409
Values joined by “and” are separate entries in the source; they are usually repeats but may differ in a detail not shown here. Equal entries are not always repeated.

Assays:
[1] = target: tail terminator protein gp42 of siphophage T1 (phage T1 (ATCC 11303-B1)); experiment: cryo-EM structure; head-connector complex of purified mature T1 virions; asymmetric reconstruction 8 Å; local reconstruction of the portal-adaptor complex 3.6 Å (twelvefold symmetry) and of the stopper-terminator-tube complex 3.6 Å (sixfold symmetry)
[2] = target: portal protein gp52 of siphophage T1 (phage T1 (ATCC 11303-B1)); experiment: as above
[3] = target: major capsid protein (MCP) gp47 of siphophage T1 (phage T1 (ATCC 11303-B1)); experiment: cryo-EM structure; icosahedral head of purified mature T1 virions (assembled in infected E. coli) in phage buffer (50 mM NaCl, 10 mM MgCl2, 10 mM Tris-HCl, pH 7.6); icosahedral reconstruction 4 Å, local reconstruction of the fivefold region 3.5 Å
[4] = target: distal tail protein gp37 of siphophage T1 (phage T1 (ATCC 11303-B1)); experiment: cryo-EM structure; tail tip of purified mature T1 virions (laboratory-adapted, no lateral fibers); 6.1 Å, after local refinement 4.3 Å, threefold symmetry imposed
[5] = target: stopper protein gp44 of siphophage T1 (phage T1 (ATCC 11303-B1)); experiment: cryo-EM structure; head-connector complex of purified mature T1 virions; asymmetric reconstruction 8 Å; local reconstruction of the portal-adaptor complex 3.6 Å (twelvefold symmetry) and of the stopper-terminator-tube complex 3.6 Å (sixfold symmetry)
[6] = target: cement protein (CP) gp49 of siphophage T1 (phage T1 (ATCC 11303-B1)); experiment: cryo-EM structure; icosahedral head of purified mature T1 virions (assembled in infected E. coli) in phage buffer (50 mM NaCl, 10 mM MgCl2, 10 mM Tris-HCl, pH 7.6); icosahedral reconstruction 4 Å, local reconstruction of the fivefold region 3.5 Å
[7] = target: cement protein (CP) gp48 of siphophage T1 (phage T1 (ATCC 11303-B1)); experiment: as above
[8] = target: adaptor protein gp45 of siphophage T1 (phage T1 (ATCC 11303-B1)); experiment: cryo-EM structure; head-connector complex of purified mature T1 virions; asymmetric reconstruction 8 Å; local reconstruction of the portal-adaptor complex 3.6 Å (twelvefold symmetry) and of the stopper-terminator-tube complex 3.6 Å (sixfold symmetry)
[9] = target: tail tube protein (TTP) gp41 of siphophage T1 (phage T1 (ATCC 11303-B1)); experiment: cryo-EM structure; tail tube of purified mature T1 virions; 4.1 Å, sixfold symmetry imposed
[10] = target: insertion protein gp34 of siphophage T1 (phage T1 (ATCC 11303-B1)); experiment: cryo-EM structure; tail tip of purified mature T1 virions (laboratory-adapted, no lateral fibers); 6.1 Å, after local refinement 4.3 Å, threefold symmetry imposed
[11] = target: central fiber protein gp33 of siphophage T1 (phage T1 (ATCC 11303-B1)); experiment: as above

Substance: tail terminator protein gp42 of siphophage T1 (natural protein)
- stoichiometry N [1]: 6

Substance: portal protein gp52 of siphophage T1 (natural protein)
- stoichiometry N [2]: 12

Substance: major capsid protein (MCP) gp47 of siphophage T1 (natural protein)
- stoichiometry N [3]: 5 and 6
- stoichiometry N (copies in the head) [3]: 415

Substance: distal tail protein gp37 of siphophage T1 (natural protein)
- stoichiometry N [4]: 6

Substance: stopper protein gp44 of siphophage T1 (natural protein)
- stoichiometry N [5]: 6

Substance: cement protein (CP) gp49 of siphophage T1 (natural protein)
- stoichiometry N [6]: 3
- stoichiometry N (gp49 per gp48) [7]: 2

Substance: adaptor protein gp45 of siphophage T1 (natural protein)
- stoichiometry N [8]: 12

Substance: tail tube protein (TTP) gp41 of siphophage T1 (natural protein)
- stoichiometry N [9]: 6

Substance: insertion protein gp34 of siphophage T1 (natural protein)
- stoichiometry N [10]: 3

Substance: central fiber protein gp33 of siphophage T1 (natural protein)
- stoichiometry N [11]: 3
